Experimental findings from patent US20210072250A1 (Genentech, published 2021) are described below.

Numbering of substitutions follows the chain as printed.

Broadly, the Kd is the equilibrium constant for the complex coming apart.

Experiment [1] has as its target T1, Flag-tagged human wild-type eIF5A (human, UniProt P63241 1-154).
T1 construct: also called transfected wild-type eIF5A; WT eIF5A
In words: Western blot of lysates of 293 cells transfected with DHS-DOHH and flag-eIF5A WT or K50A. (In general: Immunoblotting shows a protein as a band on a membrane.)

Experiment [2] concerns the target T2, endogenous eIF5A (human, UniProt P63241 2-154).
T2 construct: also called endogenous eIF5A protein of 293T cells
The description is as above.

Experiment [3] addresses T3, Flag-tagged human K50A eIF5A (human, UniProt P63241 1-154).
T3 construct: also called K50A variant; K50A mutant eIF5A
The experiment is described as above.

For a further experiment, the target named is P6. In words: ELISA, unpurified hybridoma supernatant on peptide. For orientation: An ELISA detects its analyte on a solid surface through an enzyme-linked reagent.
Experiment [4] concerns the target T4, P6-Hpu.
T4 construct: Synthetic peptide
In words: ELISA, unpurified hybridoma supernatant on peptide.

The target in experiment [5] is T4, P6-Hpu. In words: SPR, ratio of KD values.
In experiment [6] the target is T4, P6-Hpu. Nature of the experiment: SPR, Biacore T200, peptide captured, Fab flowed.
Experiment [7] has as its target T2, endogenous eIF5A. Nature of the experiment: immunoprecipitation from 293T cell lysate (diluted 1, 2, 4, 8-fold) with antibody on protein A beads, SDS-PAGE, Coomassie blue.

T2 sequence (P63241 2-154 limits assumed): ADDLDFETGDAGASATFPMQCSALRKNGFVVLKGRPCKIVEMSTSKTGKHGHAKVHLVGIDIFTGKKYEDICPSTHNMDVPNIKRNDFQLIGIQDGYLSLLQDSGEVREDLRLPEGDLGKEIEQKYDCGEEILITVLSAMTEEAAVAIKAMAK
T1 sequence (P63241 whole entry): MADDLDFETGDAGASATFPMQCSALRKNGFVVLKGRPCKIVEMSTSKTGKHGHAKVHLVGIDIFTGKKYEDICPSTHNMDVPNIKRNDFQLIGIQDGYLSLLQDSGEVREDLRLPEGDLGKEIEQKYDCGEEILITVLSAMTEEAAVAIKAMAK
T3 sequence (P63241 whole entry K50A): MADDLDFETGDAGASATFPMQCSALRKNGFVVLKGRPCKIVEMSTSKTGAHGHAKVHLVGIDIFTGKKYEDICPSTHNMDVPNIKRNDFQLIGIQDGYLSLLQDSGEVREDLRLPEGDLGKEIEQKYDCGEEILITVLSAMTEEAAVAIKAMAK

B1: mAbHpu91 (antibody, V domains shown)
VH: QSVEESGGRLVTPGTPLTLTCTVSAFSLSTYTINWVRQAPGKGLEWIGDIWSDGNTYYANWAKGRFTISKTSTTVDLKITSPTTEDTATYFCARDSWDTSIYYGLDLWGQGTLVTVSS
VL: AIKMTQTPSSVSAAVGGTVTINCQASEDIKRYLAWYQQKPGQPPKLLIYAASKLASGVSSRFTGSGSGTEYTLTISGVQCDDAATYYCQQGYTSTNVNNAFGGGTEVVVK
notes: also called antibody Hpu91
On to B1, for which the binding result is reported as “binds” in experiment [1]; “binds” with endogenous eIF5A [2]; “no binding” in experiment [3]; “no binding” in the experiment with P6; “binds” with P6-Hpu [4].

B2: FabHpu98.61 (Fab, V domains shown)
VH: B1 VH with F26C, S29Y, T30H, Y31C, I33M, W51Y, S52T, T99A, I101S
VL: AIKMTQTPSSVSAAVGGTVTINCQASEDIKRYLAWYQQKPGQPPKLLIYAASKLASGVSSRFKGSGSGTEYTLTISGVQCDDAATYYCQQGYTSSNVNNAFGGGTEVVVKG
For the molecule B2, in the experiment with P6-Hpu [5], the “Fold improvement in KD over parent FabHpu98” value is above 4.4 fold. In the experiment with P6-Hpu [6], this molecule returned a Kd of 229 nM.

B3: mAbHpu24 (antibody, V domains shown)
VH: QEQLKESGGRLVAPGTPLTLTCTVSGFDISDYAMIWVRQAPGKGLEWIGIIYGGSNKLAYAKWAKGRFTISRTSTTVDLKITSPTTEDTATYFCARGYGSMDGYDRLNLWGQGTLVTVSS
VL: AAVLTQTPSPVSAAVGGTVTISCQSSETVYRGDWLSWFQKKPGQPPKLLIYDASYLASGVSSRFSGSGSGTHFTLTISGVQCDDAATYYCLGGYYDDADDTFGGGTEVVVK
notes: also called antibody Hpu24
Take B3: in the experiment with P6, the binding result is given as “no binding”.

B4: FabHpu24 (Fab, V domains shown)
VH: B3 VH
VL: AAVLTQTPSPVSAAVGGTVTISCQSSETVYRGDWLSWFQKKPGQPPKLLIYDASYLASGVSSRFSGSGSGTHFTLTISGVQCDDAATYYCLGGYYDDADDTFGGGTEVVVKG
The molecule B4 came in with an equilibrium dissociation constant (Kd) in the experiment with P6-Hpu [6] of 176 nM.

B5: FabHpu24.B (Fab, V domains shown)
VH: B3 VH with G54V, S55I, K57D
VL: B4 VL with Q24R, S26R, E27Q, T28R, R31L, Y55F, L56R, A57G, S58D
For B5, the “Fold improvement in KD over parent FabHpu24” value with P6-Hpu [5] was found to be 2.9 fold. Moreover, binding with P6-Hpu [6] was put at a Kd of 61 nM.

B6: mAbHpu24.B (antibody, V domains shown)
VH: B3 VH with G54V, S55I, K57D
VL: B3 VL with Q24R, S26R, E27Q, T28R, R31L, Y55F, L56R, A57G, S58D
notes: also called antibody Hpu24.B
On to B6, for which the binding result with endogenous eIF5A [7] is recorded as “binds”.
